Legend:
[1] = tested on: ^177Lu-octreotide PRRT kidney damage mouse model; assay: Short-term radioprotection of kidneys with A1M in PRRT (^177Lu-octreotide PRRT kidney damage mouse model)
Procedure: NB, ^177Lu-DOTATATE and A1M are injected separately at T=0. Analytic Methods:
The mice were left for 1 day or 8 days, and then sacrificed with sampling of plasma and urine, as described above.

[2] = patients treated with PRRT; cited from earlier work
[3] = from blood stream; cited from earlier work
[4] = SDS-PAGE / Western blotting of injected non-labelled A1M in kidneys and serum; format: in vivo, NMRI mice
Procedure: SDS-PAGE analysis was performed on kidneys and serum from animals that had been injected i.v. with non-labeled A1M (100 μl/animal, 1.5 mg/ml). Animals were terminated at 10, 20 and 60 minutes post-injection, blood and kidneys were sampled and kidneys were washed and placed in 1 ml PBS. Following mechanical tissue homogenization, tissue was centrifuged at 10,000×g for 10 minutes and supernatant was transferred to a new tube and used for further analysis as describe below. Serum was obtained from the blood samples by centrifugation at 1,000×g for 10 minutes. SDS-PAGE gels were run under reducing conditions and the separated proteins were transferred to polyvinylidene difluoride (PVDF) membranes (Immobilon-P, Millipore, Bedford, Mass., USA) using Trans-Blot Turbo transfer system (Bio-Rad, Delaware, USA). […] The membranes were developed using a ChemiDoc MP Imaging system (BioRad).

[5] = Immunohistochemistry and confocal fluorescence microscopy of A1M and octreotide-647 in kidney sections; parameters: species or system mice; details: mouse, in vivo
Procedure: However, only wild-type data are included. After euthanization, kidneys were removed directly frozen and embedded in Tissue Tec. […] Serial sectioning was performed, collecting 3-4 sections per slide, of which adjacent slides were used for either chromogen immunohistochemistry (IHC) or immunofluorescence (IF) labeling. Sections were post-fixed in 4% paraformaldehyde (PFA, Sigma, St. Louis, Mo., USA, dissolved in PBS, 0.1 M, pH 7.4) for 15 minutes, and rinsed in PBS two times for 5 minutes. For single labeling of […], sections were incubated with 0.03% hydrogen peroxide (H2O2, Merck, Darmstadt, Germany) for five minutes for chromogen visualization (IHC). For both chromogen and fluorescence visualization sections were incubated with 1% bovine serum albumin (BSA, Sigma, St. Louis, Mo., USA; diluted in PBS) for 30 minutes. Sections were then incubated with rabbit anti-human […] […] The choices of optical sections and scan depths were determined from the centre position of the majority of nuclei (DAPI labeling) in the scanned field. Sequential scanning was performed of channels displaying AF488, HiLyte Fluor 647, DAPI and Texas Red fluorescence. For each channel the renal profile with the highest fluorescence intensities was selected as a reference, from which the acquisition settings (laser power, PMT detector gain, digital offset) were optimized and used for all scanned areas. […]

[6] = mouse, in vivo, iv
Procedure: Organ-specific uptake values were calculated as percent injected activity per gram of tissue (% IA/g) or percent injected activity (% IA).

[7] = in vivo, iv

## C[C@@H](O)[C@H](NC(=O)[C@@H]1CSSC[C@H](NC(=O)[C@@H](Cc2ccccc2)NC(=O)CN2CCN(CC(=O)[O-])CCN(CC(=O)[O-])CCN(CC(=O)[O-])CC2)C(=O)N[C@@H](Cc2ccc(O)cc2)C(=O)N[C@H](Cc2c[nH]c3ccccc23)C(=O)N[C@@H](CCCCN)C(=O)N[C@@H]([C@@H](C)O)C(=O)N1)C(=O)O.[177Lu+3] [^177Lu-DOTATATE, ^177Lu-DOTA0, Tyr3]octreotate, reference compound]
[1]; 150 MBq, after 1 and 8 days
  plasma creatinine levels (marker of GFR) versus control: significantly increased
[1]; 150 MBq, after 1 and 8 days, more pronounced after 1 day
  albumin concentrations in urine (proteinuria) versus control: significantly elevated
[2]
  creatinine clearance loss: 3.8 % per year

B1: α1-microglobulin (protein, listed as Homo sapiens)
chain: MHHHHHHHHGGGGGIEGRGPVPTPPDNIQVQENFNISRIYGKWYNLAIGSTCPWLKKIMDRMTVSTLVLGEGATEAEISMTSTRWRKGVCEETSGAYEKTDTDGKFLYHKSKWNITMESYVVHTNYDEYAIFLTKKFSRHHGPTITAKLYGRAPQLRETLLQDFRVVAQGVGIPEDSIFTMADRGECVPGEQEPEPILIPR
notes: Recombinant human A1M expressed in E. coli
[1]; 150 μg A1M + 150 MBq 177Lu-DOTATATE, 1 and 8 days, highly significant after 8 days (P<0.01)
  GFR (plasma creatinine) on simultaneous infusion of A1M: restored the GFR to control levels
[1]; 150 μg A1M + 150 MBq 177Lu-DOTATATE, 1 day
  proteinuria (urine albumin) on simultaneous A1M-treatment, after 1 day: significantly reduced
[1]; 150 μg A1M + 150 MBq 177Lu-DOTATATE, 8 days
  significantly reduced proteinuria (urine albumin) on simultaneous A1M-treatment, after 8 days: not
[3]
  T½ of transport across the vessel walls to the extravascular compartment: 2 to 3 min
[4]; 10, 20 and 60 minutes post-injection, 150 μg A1M i.v.
  state of A1M found in blood and kidneys: intact, full-length
[4]; Western blot, 10, 20 and 60 minutes post-injection
  time of highest amounts of A1M in kidneys and serum: 10 min
[4]; kidneys, i.v. injection
  time post-injection up to which A1M is intact, full-length: ≥ 60 min
[5]
  fluorescence detection in kidney at 4 hours p.i.: significant decrease
[6]
  maximum of injected substance found per gram kidney tissue: 76%
  time of maximum (peak) uptake in the kidneys post-injection: 10 min

B2: ^125I-A1M: Recombinant human A1M radiolabelled with 125I using the chloramine T method (protein, UniProt P02760 20-203, looked up)
Alpha-1-microglobulin: GPVPTPPDNIQVQENFNISRIYGKWYNLAIGSTCPWLKKIMDRMTVSTLVLGEGATEAEISMTSTRWRKGVCEETSGAYEKTDTDGKFLYHKSKWNITMESYVVHTNYDEYAIFLTKKFSRHHGPTITAKLYGRAPQLRETLLQDFRVVAQGVGIPEDSIFTMADRGECVPGEQEPEPILIPRV
modifications: Alpha-1-microglobulin 125I radiolabel
[6]
  time of maximum (peak) uptake in the kidneys post-injection: 20 min
  uptake in the kidneys (biodistribution): High uptake
[7]
  fraction of i.v. administered substance localized in kidneys: > 30%

— patent publication US10960048B2, “Alpha-1-microglobulin for use in the protection of kidneys in radionuclide therapy” (Guard Therapeutics International AB, priority 2015, dated 2021)
